Like-named read-outs stand apart in the source and are kept apart here.
Assays:
Test in all cases: native MS
SsoSSB WT [1] = molecular target: T1, SsoSSB WT (Saccharolobus solfataricus DSM 1617 …, UniProt Q97W73 1-148)
T1 sequence: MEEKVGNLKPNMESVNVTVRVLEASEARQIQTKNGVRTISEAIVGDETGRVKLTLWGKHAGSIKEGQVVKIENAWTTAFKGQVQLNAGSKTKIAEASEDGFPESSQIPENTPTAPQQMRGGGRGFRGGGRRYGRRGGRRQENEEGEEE

SsoSSB WT [2] = molecular target: T1, SsoSSB WT; remark: listed apart in the source
SsoSSB WT [3] = molecular target: T1, SsoSSB WT; remark: listed apart in the source
SsoSSB WT [4] = molecular target: T1, SsoSSB WT; remark: listed apart in the source

## TTTTTTTTTTTTTTT (ssDNA) [T15]
SsoSSB WT [1]
  Kd: 1320 nM
SsoSSB WT [2]
  Kd: 1940 nM
SsoSSB WT [3]
  Kd: 2080 nM
SsoSSB WT [4]
  Kd: 1240 nM

## TTTTTTTTTTTTTTTTTTTTTTTTTTTTTT (ssDNA) [T30]
SsoSSB WT [1]
  Kd: 266 nM
SsoSSB WT [2]
  Kd: 197 nM
SsoSSB WT [3]
  Kd: 209 nM
SsoSSB WT [4]
  Kd: 253 nM

Source: publication PMC13047697
